Laboratory results as given in patent US20220251191A1 (ARCH ONCOLOGY, published 2022).
Numbering of substitutions follows the chain as printed. One block for each binder: values may come before it.

How the values were obtained:
[1] = biological target: T1, recombinant biotin tagged IL-7 Receptor-alpha (IL-7Rα) (Acrobiosystems #IL-7-H82F8) (UniProt P16871 21-236, biotin tag (site not stated)); assay: TR-FRET ligand-receptor binding assay, equilibrium fit
T1 construct: Bought reagent; also called IL-7Ra; α receptor
T1 sequence (looked up): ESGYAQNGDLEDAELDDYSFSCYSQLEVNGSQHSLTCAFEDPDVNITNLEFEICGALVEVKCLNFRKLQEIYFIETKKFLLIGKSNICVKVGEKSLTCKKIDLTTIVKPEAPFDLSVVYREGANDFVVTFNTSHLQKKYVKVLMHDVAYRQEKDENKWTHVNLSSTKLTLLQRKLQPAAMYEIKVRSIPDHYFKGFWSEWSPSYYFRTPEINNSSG
Method: (§1) IL-7 binding affinity was determined by measuring the TR-FRET fluorescence signal at a range of concentrations of recombinant IL-7 and IL-7 Receptor-alpha (IL-7Rα). In a buffer of PBS (pH 7.4)+0.05% BSA and 0.005% Tween-20, make 4×stocks of 160 nM TR-FRET acceptor linked α6-his IgG (Perkin Elmer #TRF0105-M), 80 nM TR-FRET donor linked streptavidin (Perkin Elmer #AD0062), recombinant 6-his tagged IL-7 wildtype or mutant variant (at concentrations up to 160 nM), and recombinant biotin tagged IL-7Rα (Acrobiosystems #IL-7-H82F8) (at concentrations up to 80 nM). For each sample to be tested, 5 μL of the 4× stock of a6-his IgG linked acceptor is mixed with 5 μL of a 4×working stock of IL-7. Separately, for each sample, 5 μL of 4×TR-FRET donor linked to streptavidin is mixed with 5 μL of the 4×working stock of recombinant IL-7Rα linked to biotin. Mixtures were incubated at room temperature for 30 minutes during which the 10 μL of a6-his linked acceptor/IL-7 mix was distributed into indicated wells in 384-well shallow black ProxiPlate (Perkin Elmer #6008260) and kept covered from light. After the 30 min incubation, 10 μL of streptavidin linked donor/IL-7Ra mixture was placed in designated wells containing designated concentration of IL-7 plus acceptor. Plates were immediately spun at 750 rpm for 30 sec and then immediately placed in PHERAstar plate reader (BMG Labtech) to read TR-FRET signal. Continuously over the next 30 minutes, fluorescence for donor signal (337 nm excitation/620 nm emission) and acceptor signal (337 nm excitation/655 nm emission) are read. The TR-FRET binding signal is determined by taking the ratio of acceptor signal over donor signal and multiplying by 10,000. Equilibrium is defined at the time point where the readings plateau before fluorescence activity begins to decay. Equilibrium values are then fit to a standard equilibrium equation assuming single site binding using the graphing program GraFit (Erithacus Software).

[2] = biological target: T1, recombinant biotin tagged IL-7 …; assay: binding analysis with two Kd parameters, in-house against commercially obtained IL-7 (taken to be TR-FRET on IL-7Rα)
[3] = biological target: T1, recombinant biotin tagged IL-7 …; assay: TR-FRET, Expt. 1
Method: as §1, with “Mixtures were incubated at room temperature for 30 minutes during which the 10 μL of a6-his linked acceptor/IL-7 mix was distributed into indicated wells in 384-well shallow black ProxiPlate (Perkin Elmer #6008260) and kept covered from light. After the 30 min incubation, 10 μL of streptavidin linked donor/IL-7Ra mixture was placed in designated wells containing designated concentration of IL-7 plus acceptor.” left out, “Equilibrium values are then fit to a standard equilibrium equation assuming single site binding using the graphing program GraFit (Erithacus Software).” left out

[4] = biological target: T1, recombinant biotin tagged IL-7 …; assay: TR-FRET, Expt. 2
Method: as §1, with “Mixtures were incubated at room temperature for 30 minutes during which the 10 μL of a6-his linked acceptor/IL-7 mix was distributed into indicated wells in 384-well shallow black ProxiPlate (Perkin Elmer #6008260) and kept covered from light. After the 30 min incubation, 10 μL of streptavidin linked donor/IL-7Ra mixture was placed in designated wells containing designated concentration of IL-7 plus acceptor.” left out, “Equilibrium values are then fit to a standard equilibrium equation assuming single site binding using the graphing program GraFit (Erithacus Software).” left out

[5] = biological target: T1, recombinant biotin tagged IL-7 …; assay: TR-FRET, earlier analyses
[6] = biological target: T1, recombinant biotin tagged IL-7 …; assay: TR-FRET, previous analyses
[7] = biological target: T1, recombinant biotin tagged IL-7 …; assay: TR-FRET, without receptor γ (FIG. 5)
Method: as §1, with “Mixtures were incubated at room temperature for 30 minutes during which the 10 μL of a6-his linked acceptor/IL-7 mix was distributed into indicated wells in 384-well shallow black ProxiPlate (Perkin Elmer #6008260) and kept covered from light. After the 30 min incubation, 10 μL of streptavidin linked donor/IL-7Ra mixture was placed in designated wells containing designated concentration of IL-7 plus acceptor.” left out, “Equilibrium values are then fit to a standard equilibrium equation assuming single site binding using the graphing program GraFit (Erithacus Software).” left out

[8] = biological target: T1, recombinant biotin tagged IL-7 …; assay: TR-FRET, only the α receptor present (FIG. 4)
Method: as §1, with “Mixtures were incubated at room temperature for 30 minutes during which the 10 μL of a6-his linked acceptor/IL-7 mix was distributed into indicated wells in 384-well shallow black ProxiPlate (Perkin Elmer #6008260) and kept covered from light. After the 30 min incubation, 10 μL of streptavidin linked donor/IL-7Ra mixture was placed in designated wells containing designated concentration of IL-7 plus acceptor.” left out, “Equilibrium values are then fit to a standard equilibrium equation assuming single site binding using the graphing program GraFit (Erithacus Software).” left out

[9] = biological target: T2, IL-7Rα with 20 nM receptor γ (UniProt P16871 21-236; P31785 23-262, biotin tag (site not stated)); assay: TR-FRET; with gamma
T2 chain 1: T1 sequence (looked up)
T2 chain 2: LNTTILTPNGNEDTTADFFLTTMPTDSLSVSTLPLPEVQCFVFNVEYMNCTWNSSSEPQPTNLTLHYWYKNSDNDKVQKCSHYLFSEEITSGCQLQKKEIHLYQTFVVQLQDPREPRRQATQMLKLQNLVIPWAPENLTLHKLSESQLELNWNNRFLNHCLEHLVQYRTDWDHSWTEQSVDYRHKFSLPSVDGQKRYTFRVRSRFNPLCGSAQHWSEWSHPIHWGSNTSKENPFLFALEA

[10] = biological target: T3, IL-7Rα with 20 nM receptor γ (UniProt P16871 21-236; P31785 23-262, biotin tag (site not stated)); assay: TR-FRET, with 20 nM receptor γ against without (FIG. 5)
T3 construct: Mixture of IL-7Rα and soluble receptor γ in the TR-FRET assay; The fit treated the receptor chains as one combined unit; also called IL-7Ra with the γ subunit; IL-7 with γ
T3 sequence (looked up) 1: T1 sequence (looked up)
T3 sequence (looked up) 2: T2 chain 2
Method: as §1, with “Mixtures were incubated at room temperature for 30 minutes during which the 10 μL of a6-his linked acceptor/IL-7 mix was distributed into indicated wells in 384-well shallow black ProxiPlate (Perkin Elmer #6008260) and kept covered from light. After the 30 min incubation, 10 μL of streptavidin linked donor/IL-7Ra mixture was placed in designated wells containing designated concentration of IL-7 plus acceptor.” left out, “Equilibrium values are then fit to a standard equilibrium equation assuming single site binding using the graphing program GraFit (Erithacus Software).” left out

[11] = biological target: T1, recombinant biotin tagged IL-7 …; assay: TR-FRET, His-tagged IL-7 and biotin IL-7Rα, equilibrium fit (FIG. 3)
Method: as §1, with “Mixtures were incubated at room temperature for 30 minutes during which the 10 μL of a6-his linked acceptor/IL-7 mix was distributed into indicated wells in 384-well shallow black ProxiPlate (Perkin Elmer #6008260) and kept covered from light. After the 30 min incubation, 10 μL of streptavidin linked donor/IL-7Ra mixture was placed in designated wells containing designated concentration of IL-7 plus acceptor.” left out, “Equilibrium values are then fit to a standard equilibrium equation assuming single site binding using the graphing program GraFit (Erithacus Software).” left out

Kd [1]: 21.7 nM
fold higher Kd than in-house IL-7 [2]: ~4 fold
B1: IL-7 WT (commercial-sourced) (ligand)
chain: MDCDIEGKDGKQYESVLMVSIDQLLDSMKEIGSNCLNNEFNFFKRHICDANKEGMFLFRAARKLRQFLKMNSTGDFDLHLLKVSEGTTILLNCTGQVKGRKPAALGEAQPTKSLEENKSLKEQKKLNDLCFLKRLLQEIKTCWNKILMGTKEH
notes: also called commercially obtained IL-7; commercial IL-7

Kd [3]: 14 nM
Kd [4]: 20 nM
Kd [5]: 6.6 nM
Kd [6]: 6 nM
Kd [7]: 12.1 nM
Kd [8]: 20.2 nM
Kd [9]: 2.75 nM
fold increase in apparent affinity with receptor γ against without [10]: 5 fold
Kd [1]: 17 nM
Kd [11]: 5.44 nM
B2: IL-7 WT (in-house with His tag) (ligand)
chain: MDCDIEGKDGKQYESVLMVSIDQLLDSMKEIGSNCLNNEFNFFKRHICDANKEGMFLFRAARKLRQFLKMNSTGDFDLHLLKVSEGTTILLNCTGQVKGRKPAALGEAQPTKSLEENKSLKEQKKLNDLCFLKRLLQEIKTCWNKILMGTKEHENLYFQGHHHHHH
notes: also called IL-7 WT (in-house-His 6); in-house IL-7

Kd [3]: 37 nM
Kd [4]: 72 nM
Kd [8]: 34.8 nM
Kd [1]: 55 nM
B3: IL-7 S1 with C-terminal His-tag (ligand)
chain: B2 chain with K11I
notes: also called IL-7 mutant S1; S1 mutant
